Source: patent US11938195B2, “Upconversion nanoparticle peptide conjugates” (BP InnoMed Limited, priority 2021, dated 2024)
Where a SMILES comes first, the peptide text is derived from it. Where no end group is shown, it is not given here. [ ]: non-standard residue; d: D form. Ahx = NCCCCCC(=O)O

Assays:
p65 [1] = assay: Western blot of p65 (NF-κB) in LCL3 cells; format: cell-based
From the text: (§1) NF-κB signaling pathway is critical for the survival of EBV-infected tumor cells. Here we investigated if our nanoprobes could affect this oncogenic pathway. EBV-positive LCL3 and C666 cells were used as models, EBV-negative HK1 cells were used as control and Western blot was used to analyze the protein expression of p65, a major transcription factor in the NF-κB family. […] GAPDH and Histone are regarded as internal standards in cytosolic and nuclear fractions, respectively. […] This is consistent with the cellular uptake results.
(§2) Western blotting: EBV-positive C666, LCL3 and EBV-negative HK1 cell pellets were treated with phosphatase and protease inhibitors at 0-4° C. for 30 min. The total protein concentrations were calculated by protein absorbance. The protein was resolved by sodium dodecyl sulfate-polyacrylamide gel electrophoresis (SDS-PAGE) and transferred to cellulose filter membranes. The membranes were blocked with 3% BSA in Tris-buffered saline in 0.1% Tween 20 (TBST) for 1 h with gentle shaking and subsequently incubated with primary antibodies (1:1000) in 3% BSA in TBST at 4° C. for overnight. After rinsing with TBST buffer three times, the blots were then incubated with corresponding secondary anti-rabbit antibody (1:6000) for 1 h. After that, the blots were rinsed again with 3% BSA in TBST for 1 h shaking at room temperature. Lastly, the density of bands was determined by image analysis system after washing with TBST buffer three times.

p65 [2] = assay: Western blot of p65 (NF-κB) in C666 cells; format: cell-based
From the text: as §1, §2

EBV-positive C666 cells [3] = assay: MTT cytotoxicity assay, C666 cells; conditions: 24 h
Method: The inhibitory effects of the novel nanoprobes on both EBV-infected cancer cells and non-EBV-infected cancer cells were investigated by MTT assays to test the cell viability. The cytotoxic assays were performed in EBV-positive C666 and NPC43 cells, LMP1-positive LCL3 and Raji cells, and the LMP1-positive and -negative HK1 cell pair. HK1, MRC-5 and HeLa cell lines are EBV-negative and they serve as negative controls. […] In addition, UCNP-P4, EBNA1-specific peptide coated UCNPs was included as control group, so the ability of inhibiting EBV-related cancer cells can be directly compared with UCNP-Pn [n=5, 6 and 7 (SEQ ID NO: 5, 6, 7)].
In vitro cytotoxic assays: The cytotoxicity of our nanoprobes was determined by MTT reduction assay. The cells (3×10^3 per well) were seeded onto 96-well plates and incubated overnight, followed by treatment with Pn [n=5, 6 and 7 (SEQ ID NO: 5, 6, 7)], UCNP, UCNP-Pn [n=5, 6 and 7 (SEQ ID NO: 5, 6, 7)] and UCNP-P4 individually at 37° C., 5% CO2 for 24 h in dark. The cell monolayers were rinsed with PBS and 50 μL of MTT, 3-(4,5-dimethylthiazol-2-yl)-2,5-diphenyltetrazolium bromide solution (0.5 mg mL^−1) was added per well and the cells were further incubated for 3 h at 37° C. The solution was subsequently discarded, and the formazan crystals were dissolved in 100 μL of DMSO per well under shaking. The absorptions of the formazan crystal solutions at 540 nm and 690 nm were measured using a dual-wavelength Labsystem Multiskan microplate reader (Merck Eurolab).

C666 derived xenografts = assay: In vivo suppression assay, C666 xenograft; conditions: for Effect on average tumor size: 12.5 mg/kg, intravenous (tail vein), twice a week, 33 days; for Body weight: C666 tumor-bearing mice, 33-day experimental period
From the text: To determine the antitumor efficacy of the new nanoprobes in vivo, their therapeutic effects were investigated in C666 and HeLa derived xenografts in BALB/c nude mice. The mice were randomly divided into five groups: (1) control (PBS), (2) UCNP, (3) UCNP-P5, (4) UCNP-P6, (5) UCNP-P7. In order to recapitulate the clinical setting of drug delivery, intravenous injection (via a tail vein) was used to deliver these agents to the immunocompromised animal.
In vivo suppression assays: EBV-positive C666 and EBV-negative HeLa cells were suspended in 200 μL of serum-free RMPI 1640 and DMEM respectively. Female BALB/c nude mice (6-8 weeks) which obtained from HKU were then injected with the cells in the right flank. Intravenous injections were performed when the average tumor volumes reached ˜200 mm^3. 0.25 mg/tumor dose of UCNP and UCNP-Pn [n=5, 6 and 7 (SEQ ID NO: 5, 6, 7)] in […] PBS buffer were injected through tail vein of mice using a 24-gauge syringe. Mice injected with the same volume of PBS buffer served as control. The body weight and tumor volumes of the mice were measured three times per week; in which the latter is calculated by (L×W^2)/2, where L and W are the longer and shorter tumor dimensions respectively. Intravenous injection at the tail vein were performed twice a week and the mice were sacrificed after 33-day experimental period; the tumors were extracted and weighed. The treatment groups are unknown to the investigators for the experimental and data analysis processes. The animal experiments conducted were approved by the Department of Health of the HKSAR Government. All animal procedures are within the Guidelines for Care and Use of Laboratory Animals of HKBU and approved by the Animal Ethics Committee of HKBU.
Hematoxylin and eosin (H&E) staining: In general, the transplanted C666 and HeLa derived tumor tissues were collected and fixed with formalin, followed by embedding in paraffin. The histologic sections were then stained with hematoxylin and eosin. Other major organ tissues (heart, liver, spleen, lung, kidney, brain) were conducted in the same procedures.

[4] = Peptide release from nanoprobes under various time intervals (UV-vis absorbance); format: physicochemical; conditions: 0.5 mg/mL
From the text: The stability and capability of cleavage of the pH linker were also studied. […] More importantly, TEM images of UCNP-P5 at different pH buffers were observed and investigated in FIG. 1, providing direct evidence on pH-responsive peptide release from UCNP.

[5] = Peptide release from nanoprobes under various pH buffers (UV-vis absorbance); format: physicochemical; conditions: 24 h in buffer, 0.5 mg/mL
From the text: The stability and capability of cleavage of the pH linker were also studied. […] More importantly, TEM images of UCNP-P5 at different pH buffers were observed and investigated in FIG. 1, providing direct evidence on pH-responsive peptide release from UCNP. […]

EBV-positive C666 cells [6] = assay: Two-photon confocal imaging, C666; format: cell-based; conditions: mainly from the nuclei, 24 h incubation
Method: After the study of cellular uptake, fluorescent confocal microscopy was used to study the sub-cellular localization with the same set of EBV-/LMP1-positive and -negative cell lines. All these cell lines were treated with as-prepared samples for different time intervals of 1 h, 3 h, 6 h, 12 h and 24 h. Fluorescence signals in the cells were imaged under 980 nm excitation.
The cells were then co-stained with 0.05 mM nuclear dye DRAQ5 for 0.5 h for confocal imaging with a Leica SP8 confocal microscope equipped with a coherent femtosecond laser (690-1050 nm), argon laser (432 nm, 457 nm and 488 nm), He—Ne laser (632 nm), UV lamp. A stage-top cell culture chamber was also used to maintain the atmospheric conditions of 2-7% CO2 and a temperature of 37° C.

[7] = biological target: EBNA1 (DNA-binding domain fragment of a.a.468-607) (Epstein-Barr virus, UniProt P03211); assay: EBNA1 dimerization/oligomerization inhibition assay; format: biochemical; conditions: 0.3 mg/mL nanoprobe, 90 mg EBNA1, DSS crosslinking, SDS gel
Method: EBNA1 dimerization/oligomerization inhibition assays were performed to reveal the ability of interrupting EBNA1 dimerization/oligomerization in the presence of the previous nanoprobe UCNP-P4 and the nanoplatforms in situ.
(conc.: 0.3 mg/mL) at 4° C. overnight. Then, 2 mM disuccinimidyl suberate (DSS) was added to allow the samples to undergo crosslinking reaction at room temperature for 30 min. The samples were run and separated on an SDS-denaturing gel and proteins were detected using Coomassie Blue staining. PBS buffer was used as control group.

Chain of EBNA1 (DNA-binding domain fragment of a.a.468-607) (P03211 468-607): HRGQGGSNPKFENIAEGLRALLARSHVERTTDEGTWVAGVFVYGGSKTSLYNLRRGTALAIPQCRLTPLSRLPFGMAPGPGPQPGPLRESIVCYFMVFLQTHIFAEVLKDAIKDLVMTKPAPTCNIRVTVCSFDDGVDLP

Compound	Cytotoxicity of free peptides (MTT cell viability) (EBV-positive C666 cells [3])	Effect on average tumor size (C666 derived xenografts)	Body weight (C666 derived xenografts)	Peptide release rate ([4]; 1 h) [%]	Peptide release rate ([4]; 3 h) [%]	Peptide release rate ([4]; 6 h) [%]	Peptide release rate ([4]; 12 h) [%]	Peptide release rate ([4]; 24 h) [%]	Peptide release rate ([4]; 3 day) [%]	Peptide release rate ([4]; 7 day) [%]	Peptide release rate ([5]; pH 5.0) [%]	Peptide release rate ([5]; pH 5.5) [%]	Peptide release rate ([5]; pH 6.0) [%]	Peptide release rate ([5]; pH 6.5) [%]	Peptide release rate ([5]; pH 7.0) [%]	Peptide release rate ([5]; pH 7.4) [%]	Responsive emission enhancement (lambda scan) (EBV-positive C666 cells [6])	other results
CSCC[C@H](NC(=O)[C@H](Cc1ccccc1)NC(=O)[C@H](Cc1ccc(O)cc1)NC(=O)CCCCCN)C(=O)N[C@H](C(=O)N[C@@H](Cc1ccccc1)C(=O)NCC(=O)NCC(=O)N[C@@H](CCCNC(=N)N)C(=O)N[C@H](CCCNC(=N)N)C(=O)N[C@@H](CCCNC(=N)N)C(=O)N[C@@H](CCCCN)C(=O)NCC(=O)NCC(=O)N[C@@H](Cc1ccccc1)C(=O)N[C@@H](Cc1c[nH]c2ccccc12)C(=O)N[C@@H](CC(C)C)C(=O)N[C@@H](Cc1ccc(O)cc1)C(=O)O)C(C)C [P5, -Ahx-YFMVFGGRrRKGGFWLY (SEQ ID NO:5)] (H-[Ahx]YFMVFGGR[dR]RKGGFWLY-OH; C-terminus assumed)	capable of selectively targeting and killing EBV-infected cells	–	–	–	–	–	–	–	–	–	–	–	–	–	–	–	–	Decreased p65 expression, nuclear fraction (p65 [1]): 86%; Decreased p65 expression, nuclear fraction (p65 [2]): 89%
CSCC[C@H](NC(=O)[C@H](Cc1ccccc1)NC(=O)[C@H](Cc1ccc(O)cc1)NC(=O)CNC(=O)CNC(=O)[C@H](CCCCN)NC(=O)[C@H](CCCNC(=N)N)NC(=O)[C@@H](CCCNC(=N)N)NC(=O)[C@H](CCCNC(=N)N)NC(=O)CCCCCN)C(=O)N[C@H](C(=O)N[C@@H](Cc1ccccc1)C(=O)NCC(=O)NCC(=O)N[C@@H](Cc1ccccc1)C(=O)N[C@@H](Cc1c[nH]c2ccccc12)C(=O)N[C@@H](CC(C)C)C(=O)N[C@@H](Cc1ccc(O)cc1)C(=O)O)C(C)C [P6, -Ahx-RrRKGGYFMVFGGFWLY (SEQ ID NO:6)] (H-[Ahx]R[dR]RKGGYFMVFGGFWLY-OH; C-terminus assumed)	capable of selectively targeting and killing EBV-infected cells	–	–	–	–	–	–	–	–	–	–	–	–	–	–	–	–	–
CSCC[C@H](NC(=O)[C@H](Cc1ccccc1)NC(=O)[C@H](Cc1ccc(O)cc1)NC(=O)CNC(=O)CNC(=O)[C@H](CCCCN)NC(=O)[C@H](CCCNC(=N)N)NC(=O)[C@@H](CCCNC(=N)N)NC(=O)[C@H](CCCNC(=N)N)NC(=O)CNC(=O)CNC(=O)[C@H](Cc1ccc(O)cc1)NC(=O)[C@H](CC(C)C)NC(=O)[C@H](Cc1c[nH]c2ccccc12)NC(=O)[C@H](Cc1ccccc1)NC(=O)CCCCCN)C(=O)N[C@H](C(=O)N[C@@H](Cc1ccccc1)C(=O)O)C(C)C [P7, -Ahx-FWLYGGRrRKGGYFMVF (SEQ ID NO:7)] (H-[Ahx]FWLYGGR[dR]RKGGYFMVF-OH)	capable of selectively targeting and killing EBV-infected cells	–	–	–	–	–	–	–	–	–	–	–	–	–	–	–	–	–
NaGdF4:Yb^3+, Er^3+@NaGdF4 [UCNP, reference compound]	–	–	–	–	–	–	–	–	–	–	–	–	–	–	–	–	–	Tumor uptake (ICP-MS biodistribution) (C666 derived xenografts; mouse, in vivo): nearly undetectable in the tumor
UCNP-P6: UCNP is NaGdF4:Yb^3+, Er^3+@NaGdF4 and the plurality of polypeptides is Ahx-RrRKGGYFMVFGGFWLY (SEQ ID NO: 6) ([Ahx]R[dR]RKGGYFMVFGGFWLY; also: UCNP conjugate)	–	no obvious effect on the tumor size	slight reduction of body weight	0	0	0.3	0.8	1.4	1.9	5.9	83.3	34.1	32.2	21.5	4.6	0	two-fold	Peptide release rate ([4]; 5 day): 2.9%; Reduced p65 expression level, cytosolic fraction (p65 [1]): 85%; Inhibition of EBNA1 dimerization/oligomerization [7]: eradicate all 90 mg EBNA1 dimers and oligomers; Reduced p65 expression level, cytosolic fraction (p65 [2]): 87%
UCNP-P7: UCNP is NaGdF4:Yb^3+, Er^3+@NaGdF4 and the plurality of polypeptides is Ahx-FWLYGGRrRKGGYFMVF (SEQ ID NO: 7) ([Ahx]FWLYGGR[dR]RKGGYFMVF; also: UCNP conjugate)	–	no obvious effect on the tumor size	slight reduction of body weight	0	0	0.2	0.7	1.0	1.6	2.6	81.2	58.5	48.2	36.1	7.4	0	two-fold	–
